From the supplement of paper PMC9170038

Tested on: MS2 coat protein
Assay: apparent KD of MS2 coat protein; higher = weaker reporter binding
Settings: Eterna round: R107
Experimental: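 RNA-MaP round R107: designed RNA switches with theophylline, tryptophan, arginine or FMN aptamers are transcribed on-chip within common flanks. They are titrated with SNAP-549-labelled MS2 coat protein in RNA-MaP buffer (100 mM Tris pH 7.5, 80 mM KCl, 4 mM MgCl2), without ligand or with the indicated ligand. Median apparent KD per design.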

[1] = input ligand: theophylline 20 uM
[2] = input ligand: theophylline 2 mM
[3] = input ligand: tryptophan 2.4 mM

Row | Sequence | apparent KD of MS2 coat protein (input ligand: arginine 13.2 mM) [µM] | apparent KD of MS2 coat protein [1] [µM] | apparent KD of MS2 coat protein [2] [µM] | apparent KD of MS2 coat protein (input ligand: none) [µM] | apparent KD of MS2 coat protein [3] [µM]
1 | AGCUACUCGUUCCUCAUGUACGAGUGGCAACGAGGACCGGUACGGCCGCCACUCGAAUAAACAUGAGGAUCACCCAUGUACAAAU [T''-M-T'-T-MS2 - Design 8] | 0.0429 | 0.168 | 0.179 | – | –
2 | AGGACGGUCGGAAGGAGCGGUACAUGAGGAUCACCCAUGUACUUCUGGGCAUCCGUAGAGUGCCAGGUAGGUCGCCGAUUGCGGG [XArg-B10] | 0.0164 | 0.0175 | 0.0106 | 0.00936 | 0.0129
3 | AGGGAAUGAAUAGAAUGAGAUGACACAGAAGGAGCGCCGAUUAAGGCAGGUAGGUCGCUGACAACAUGAGGAUCACCCAUGUUAA [#11 Same State - Arginine A] | 0.00873 | 0.0141 | 0.0175 | 0.017 | 0.0206
4 | AGUAACAUGAGGAUCACCCAUGUAUGAGAAGGAGCGUGUUUUAACACAGGUAGGUCGCUCAAUAUUAAUUUAUUAGAUACAUUUA [JR_SSArginiA_Sub006] | 0.0189 | 0.0451 | 0.0368 | 0.027 | 0.0343
5 | AGUACAUGAGGAUCACCCAUGUGCCGGUAACGAGGACCGGUACGGCCGCCACUCGAUGUACCUCAAUUUGAUUGAGAUAAGAAAA [Anorbian] | 0.0342 | 0.0576 | 0.0474 | – | –
6 | AGUAUCAGUGGAAGGAGCGUCGCGAAUGCCACAUGAGGAUCACCCAUGUCGCCUUGAGCGCGACAGGUAGGUCGCCACGGUAGGC [SS-ArgB3] | 0.0532 | 0.174 | 0.338 | 0.208 | 0.14
7 | AGUAUUGGAAACAGUACUAGUGAUCCGGUCCGAGGACCGGUACGGCCGCCACUCGAUUUAAAUAAACAUGAGGAUCACCCAUGUA [Ex Tryptophan A 14] | 0.0158 | 0.0172 | 0.0165 | – | –
8 | AGUCACAUGAGGAUCACCCAUGUGCCAGAACGAGGACCGGUACGGCCGCCACUCGAGGCGUCCGUCGACAAUAAUGUGAACUGCA [theeternabot_sameState_MS2_Trp_A_48] | 0.0111 | 0.0167 | 0.0116 | – | –
9 | AGUCUGGACUCGGCCGCCACUCGUGAUGCUUUGGCACAUGAGGAUCACCCAUGUGGUCGGCCUUAGAGGACCGGGAGUACCAGUC [Ariaredle] | 0.0523 | 0.0849 | 0.0635 | – | –
10 | AGUCUUAUAGGAAGGAGCGCAAUCAUCACAUGAGGAUCACCCAUGUCAAGGUGAGAGUCAUUGCAGGUAGGUCGCCUAACUAAGA [Same State - Arginine B (Freestyle 9)] | 0.15 | 0.173 | 0.251 | 0.241 | 0.213
11 | AGUGUUAUAACUGAUACCAGACCUUUGCUUAUACAUGAGGAUCACCCAUGUAAAAUGGCGGUCCCUUGGCAGCAGAGAAUACGCA [#09 Same State - Theophylline B] | 0.0522 | 0.057 | – | – | 0.0601
12 | AGUUGACGAAAGUCAGCAACAUGAUCCGAAGGAGCGGGCGAAAGCCCAGGUAGGUCGCGGACAUGAGGAUCACCCAUGUCUCCUU [MAT - Exclusion Arginine A - Mod of Eli - D12] | 0.0378 | 0.0788 | 0.0926 | 0.0734 | 0.0707
13 | AUAACAUGAGGAUCACCCAUGUAACCUGAAGGAGCGGACGAAAGUCCAGGUAGGUCGCAGGACUCCUUCAACAUGGGAGAGGGAG [SSArg-A #27 NuPack the Brourd] | 0.12 | 0.131 | 0.152 | 0.099 | 0.124
14 | AUAACAUGAGGAUCACCCAUGUAAGCAGAUACCAGCUAGGAAACUAGCCCUUGGCAGCUGCAUAGUGAUCCAUAUAUCUGCUAAU [(M1)-(M2)-(T1)-(T2)-(M)'-(T)'_Design8] | 0.0406 | 0.0805 | – | – | 0.0592
15 | AUAACUGCCAAGGAUCAUGGGUGAGCAGAUACCAGCUAGGAAACUAGCCCUUGGCAGCUGCAACAUGAGGAUCACCCAUGUAAUA [(T)'-(M)'-(T1)-(T2)-(M1)-(M2)_Design8] | 0.0385 | 0.0838 | 0.119 | 0.147 | 0.0904
16 | AUAAGUAAGUUUUCGUGUUUUAUUACAGAUACCAGACUAUACGUUGUCCCUUGGCAGCUGGAUUACAUGAGGAUCACCCAUGUUG [#25 Exclusion-TheophyllineA] | 0.019 | 0.0339 | – | – | 0.0239
17 | AUAAGUGUAAGAUACCGCACGCUGGAGGAAGGAGCGCGGAUUAACGCAGGUAGGUCGCCUCGUACAUGAGGAUCACCCAUGUGGC [#14 Same State - Arginine A] | 0.0417 | 0.0415 | 0.0387 | 0.0225 | 0.0352
18 | AUACAUGAGGAUCACCCAUGUAUAGUCGAUACCAGCUCAAGGAAGAGCCCUUGGCAGCGACACUGGUAUCCAUGGGUGAUACCAG [(Ms2)-(Theo)-(T)'-(M)'-(T)''_Design4] | 0.0178 | 0.0364 | – | – | 0.0193
19 | AUACAUGAGGAUCACCCAUGUCACACAGAAGGAGCGGCUGUAGAGCCAGGUAGGUCGCUGUACUCAAAAUACUUCAUACUCAUGU [JR_Nu_ExcArginiA_Sub033] | 0.0349 | 0.0347 | 0.037 | 0.033 | 0.0275
20 | AUACAUGAGGAUCACCCAUGUCAUUCAGAAGGAGCGUCAUUUUAGACAGGUAGGUCGCUGAUAUUAUUCUUAUACUUUAUGUUUA [JR_ExcArginiA_Sub022] | 0.021 | 0.026 | 0.0195 | 0.0177 | 0.0202
21 | AUACAUGAGGAUCACCCAUGUGAUGGCCGGCGAGGACCGGUACGGCCGCCACUCGUGAUCCGUCCUGAGAGCAAAGCUCUCAGCA [Macete] | 0.076 | 0.258 | 0.292 | 0.141 | 0.337
22 | AUACAUGAGGAUCACCCAUGUUAUAGUGAAGGAGCGACAUUUAUGUCAGGUAGGUCGCACUAUUGUUUAAUGAUUCUUGGAUCUU [JR_ExcArginiA_Sub017] | 0.0169 | 0.0224 | 0.0151 | 0.0152 | 0.0185
23 | AUAGUCUAGAGUGAUACCAGACUACAUGAGGAUCACCCAUGUAUCUUUUGGUUAUCAUGUGUCCCUUGGCAGCACGCAUGUAUAG [JR_ExcTheophyB_Sub013] | 0.0113 | 0.0124 | – | – | 0.00994
24 | AUCAUAAUAGCCUCGUGUAAUUAAAUGGAACGAGGACCGGUACGGCCGCCACUCGAUAUAAACAUGAGGAUCACCCAUGUAAGCA [JR_ExcTryptoA_Sub004] | 0.0305 | 0.0441 | 0.0582 | – | –
25 | AUCCCGUGAGCGGCCGCCACUGGAGGCUUUGCGCGACAUGAGGAUCACCCAUGUGUGCCCGGCGUUAGGACCGGGUUCGCGUGGA [#1 Same State - Tryptophan B Attempt #17 (HarryS)] | 0.0293 | 0.0713 | 0.0651 | 0.0256 | 0.034
26 | AUCGCACCUGGUGAUACCAGCGUUUGCUCGCGACAUGAGGAUCACCCAUGUGGCCAGUGAUGCCCUUGGCAGCAUGGGCGGUGCA [Same State - Theophylline B (Freestyle 28)] | 0.111 | 0.412 | – | – | 0.349
